This series has as its target nsp12 (RdRp catalytic subunit);nsp7;nsp8 (SARS-CoV-2;SARS-CoV-2;SARS-CoV-2, UniProt P0DTD1;P0DTD1;P0DTD1 4393-5324;3860-3942;3943-4140, ||). The experiment in a line: fluorescence polarization; higher affinity than T20P14-R. As to conditions: protein: recombinant;recombinant;recombinant; tags: His6-Smt3 removed by Ulp1;His6-Smt3 removed by Ulp1;His6-Smt3 removed by Ulp1; copies: 1;1;2; label: 5'-FAM (FP); hairpin, UUCG loop, 5' overhang 5 nt. For orientation: Fluorescence polarisation rises when a labelled molecule tumbles more slowly, as on binding a larger partner.

Experimental findings from paper PMC12519199, “Molecular basis of SARS-CoV-2 proofreading enzyme–mediated resistance to remdesivir” are described below.

GGGAAUGGGAUUUUAAUAGCUUCGGCUAUUAAAAUCCCA (structured_RNA) [T20P14-A]: the binding result is listed as “binds”.
